Assay results: IntAct's records for PubMed 25220469

B1: Small G protein signaling modulator 1 (Mus musculus), Q8BPQ7-1 (parent)
chain: MASVPAEAETRQRLLRTVKKEVKQIMEEAVTRKFVHEDSSHIISFCAAVEACVLHGLRRRAAGFLRSNKIAALFMKVGKGFPPAEELSRKVQELEQLIESARNQIQGLQENVRKLPKLPNLSPLAIKHLWIRTALFGRVLDKIVHYLVENSSKYYEKEALLMDPVDGPILASLLVGPCALEYTKMKTADHFWTDPSADELVQRHRIHSSHLRQDSPTKRPALCIQKRHSSGSMDDRPSISARDYVESLHQDSRATLLYGKNNVLVQPRDDMEAVPGYLSLHQTADVMTLKWTPNQLMNGSVGDLDYEKSVYWDYAVTIRLEEIVYLHCHQQVDSGGTVVLVSQDGIQRPPFRFPKGGHLLQFLSCLENGLLPHGQLDPPLWSQRGKGKVFPKLRKRSPQGSSESTSSDKEDDEATDYVFRIIYPGTQSEFVPQDLMDVSMNNLPPLWQPSPRKSSCSSCSQSGSADGGSTNGCNHERAPLKLLCDNMKYQILSRAFYGWLAYCRHLSTVRTHLSALVNHMIVSPDLPCDAGQGLTASIWEKYIQDSTTYPEQELLRLIYYGGVQPEIRRAVWPFLLGHYQFGMTEMERKEVDEQIHACYAQTMSEWLGCEAIVRQRERESHAAALAKCSSGASLDSHLHRMLHRDSTISNESSQSCSSGRQNLRLQSDSSSSTQVFESVDEVEQTEAEGRSEEKHPKIPNGNPANGTCSPDSGHPSSHNFSSGLSEHSEPSLSTEDSVLDAQRSLPAVFRPGDSSVEDGQSSEATTSRDEAPREELAVQDSLESDLLANESLEEFMSIPGSLDVALPEKDGAVMDGWPGEADKPSRADSEDNLSEEPEMESLFPALASLAVTSSANNEASPVSSSGVTYSPELLDLYTVNLHRIEKDVQRCDRSYWYFTAANLEKLRNIMCSYIWQHIEIGYVQGMCDLLAPLLVILDDEALAFSCFTELMKRMNQNFPHGGAMDTHFANMRSLIQILDSELFELMHQNGDYTHFYFCYRWFLLDFKRELVYDDVFSVWETIWAAKHVSSAHYVLFIALALVEVYRDIILENNMDFTDIIKFFNEMAERHNAKQILQLARDLVHKVQILIENK
partner: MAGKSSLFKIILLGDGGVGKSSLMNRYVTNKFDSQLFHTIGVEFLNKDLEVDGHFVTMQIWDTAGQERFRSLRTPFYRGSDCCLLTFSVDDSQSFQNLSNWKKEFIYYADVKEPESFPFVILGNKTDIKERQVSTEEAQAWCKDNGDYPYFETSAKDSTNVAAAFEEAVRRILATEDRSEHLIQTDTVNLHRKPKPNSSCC
B2: Ras-related protein Rab-9A (Mus musculus), Q9R0M6 (parent)
chain: B1 partner
partner: B1 chain

Variants of: B1
Conditions: with rab9a_mouse Rab9a

| Variant | effect of a mutation on the interaction |
| --- | --- |
| N261A | disrupting interaction strength |
| K260A | disrupting interaction strength |
| N294A | disrupting interaction strength |
| L256A | disrupting interaction strength |
| M297A | disrupting interaction strength |
| Y277A | disrupting interaction strength |

Variants of: B1
Conditions: with rab9a_mouse Rab9a
Remark: another data set of the same source

| Variant | effect of a mutation on the interaction |
| --- | --- |
| K260A | decreasing interaction strength |
| L256A | decreasing interaction strength |
| M297A | decreasing interaction strength |

Variants of: B2
Conditions: with Sgsm1, Q8BPQ7-1

| Variant | effect of a mutation on the interaction |
| --- | --- |
| MAGKSSLFKIILLGDGGVGKSSLMNRYVTNKFDSQLFHTIGVEFLNKDLEVDGHFVTMQIWDTAGQERARSLRTPFYRGSDCCLLTFSVDDSQSFQNLSNWKKEFIYYADVKEPESFPFVILGNKTDIKERQVSTEEAQAWCKDNGDYPYFETSAKDSTNVAAAFEEAVRRILATEDRSEHLIQTDTVNLHRKPKPNSSCC [F69A] | decreasing interaction strength |
| MAGKSSLFKIILLGDGGVGKSSLMNRYVTNKFDSQLFHTIGVEFLNKDLEVDGHFVTMQIWDTAGQERFRSARTPFYRGSDCCLLTFSVDDSQSFQNLSNWKKEFIYYADVKEPESFPFVILGNKTDIKERQVSTEEAQAWCKDNGDYPYFETSAKDSTNVAAAFEEAVRRILATEDRSEHLIQTDTVNLHRKPKPNSSCC [L72A] | decreasing interaction strength |
| MAGKSSLFKIILLGDGGVGKSSLMNRYVTNKFDSQLFHTIAVEFLNKDLEVDGHFVTMQIWDTAGQERFRSLRTPFYRGSDCCLLTFSVDDSQSFQNLSNWKKEFIYYADVKEPESFPFVILGNKTDIKERQVSTEEAQAWCKDNGDYPYFETSAKDSTNVAAAFEEAVRRILATEDRSEHLIQTDTVNLHRKPKPNSSCC [G41A] | decreasing interaction strength |
| MAGKSSLFKIILLGDGGVGKSSLMNRYVTNKFDSQLFHTIDVEFLNKDLEVDGHFVTMQIWDTAGQERFRSLRTPFYRGSDCCLLTFSVDDSQSFQNLSNWKKEFIYYADVKEPESFPFVILGNKTDIKERQVSTEEAQAWCKDNGDYPYFETSAKDSTNVAAAFEEAVRRILATEDRSEHLIQTDTVNLHRKPKPNSSCC [G41D] | decreasing interaction strength |

Variants of: B2
Conditions: with Sgsm1, Q8BPQ7-1
Remark: another data set of the same source

| Variant | effect of a mutation on the interaction |
| --- | --- |
| MAGKSSLFKIILLGDGGVGKSSLMNRYVTNKFDSQLFHTIGVEFLNKDLEVDGHFVTMQIADTAGQERFRSLRTPFYRGSDCCLLTFSVDDSQSFQNLSNWKKEFIYYADVKEPESFPFVILGNKTDIKERQVSTEEAQAWCKDNGDYPYFETSAKDSTNVAAAFEEAVRRILATEDRSEHLIQTDTVNLHRKPKPNSSCC [W61A] | decreasing interaction strength |
| MAGKSSLFKIILLGDGGVGKSSLMNRYVTNKFDSQLFHTAGVEFLNKDLEVDGHFVTMQIWDTAGQERFRSLRTPFYRGSDCCLLTFSVDDSQSFQNLSNWKKEFIYYADVKEPESFPFVILGNKTDIKERQVSTEEAQAWCKDNGDYPYFETSAKDSTNVAAAFEEAVRRILATEDRSEHLIQTDTVNLHRKPKPNSSCC [I40A] | decreasing interaction strength |
| MAGKSSLFKIILLGDGGVGKSSLMNRYVTNKFDSQLFHTIGVEALNKDLEVDGHFVTMQIWDTAGQERFRSLRTPFYRGSDCCLLTFSVDDSQSFQNLSNWKKEFIYYADVKEPESFPFVILGNKTDIKERQVSTEEAQAWCKDNGDYPYFETSAKDSTNVAAAFEEAVRRILATEDRSEHLIQTDTVNLHRKPKPNSSCC [F44A] | decreasing interaction strength |
| MAGKSSLFKIILLGDGGVGKSSLMNRYVTNKFDSQLFHTIGVEFLNKDLEVDGHFVTMQIWDTAGQERFRSLRTPAYRGSDCCLLTFSVDDSQSFQNLSNWKKEFIYYADVKEPESFPFVILGNKTDIKERQVSTEEAQAWCKDNGDYPYFETSAKDSTNVAAAFEEAVRRILATEDRSEHLIQTDTVNLHRKPKPNSSCC [F76A] | decreasing interaction strength |
| MAGKSSLFKIILLGDGGVGKSSLMNRYVTNKFDSQLFHTIGVAFLNKDLEVDGHFVTMQIWDTAGQERFRSLRTPFYRGSDCCLLTFSVDDSQSFQNLSNWKKEFIYYADVKEPESFPFVILGNKTDIKERQVSTEEAQAWCKDNGDYPYFETSAKDSTNVAAAFEEAVRRILATEDRSEHLIQTDTVNLHRKPKPNSSCC [E43A] | decreasing interaction strength |
| MAGKSSLFKIILLGDGGVGKSSLMNRYVTNKFDSQLFHTIAVEFLNKDLEVDGHFVTMQIWDTAGQERFRSLRTPFYRGSDCCLLTFSVDDSQSFQNLSNWKKEFIYYADVKEPESFPFVILGNKTDIKERQVSTEEAQAWCKDNGDYPYFETSAKDSTNVAAAFEEAVRRILATEDRSEHLIQTDTVNLHRKPKPNSSCC [G41A] | disrupting interaction strength |
| MAGKSSLFKIILLGDGGVGKSSLMNRYVTNKFDSQLFHTIDVEFLNKDLEVDGHFVTMQIWDTAGQERFRSLRTPFYRGSDCCLLTFSVDDSQSFQNLSNWKKEFIYYADVKEPESFPFVILGNKTDIKERQVSTEEAQAWCKDNGDYPYFETSAKDSTNVAAAFEEAVRRILATEDRSEHLIQTDTVNLHRKPKPNSSCC [G41D] | disrupting interaction strength |
| MAGKSSLFKIILLGDGGVGKSSLMNRYVTNKFDSQLFHTIGAEFLNKDLEVDGHFVTMQIWDTAGQERFRSLRTPFYRGSDCCLLTFSVDDSQSFQNLSNWKKEFIYYADVKEPESFPFVILGNKTDIKERQVSTEEAQAWCKDNGDYPYFETSAKDSTNVAAAFEEAVRRILATEDRSEHLIQTDTVNLHRKPKPNSSCC [V42A] | decreasing interaction strength |
